Laboratory results as given in patent US12584139B2, “Nucleic acid construct set, kit, detection method and method for predicting drug effect” (KABUSHIKI KAISHA TOSHIBA, priority 2020, dated 2026).

Tested on: human mammary tumor-derived cell line (MCF-7)
Test: NanoLuc luminescence assay after transfection of lipid particles encapsulating vectors 1 and vector 2
Type: cell-based
Settings: for luminescence amount ratio (luminescence intensity with vector 2 alone assumed to be 1): vector 1 (50 ng/well) together with vector 2 (1 ng/well), MCF-7, 48 hours; for NanoLuc luminescence intensity (RLU): vector 1 (50 ng/well) transfected together with vector 2 (1 ng/well), lipid particles, MCF-7, 48 hours after addition
Protocol: A human mammary tumor-derived cell line (MCF-7) was subjected to adhesion culture at 37° C. in a 5% CO2 atmosphere in a culture flask using a medium (MEM, GIBCO) to which 10% fetal bovine serum (FBS) was added. After the culture, the medium was removed, and the cells were washed with PBS, and then the cells were detached by 0.25% trypsin-EDTA treatment. Then, the cells were suspended in a medium to which 10% FBS was added to inactivate trypsin. After recovering the cells by centrifugation, the cells were suspended in a medium to which 10% FBS was added to be 2.0×10^5 cells/mL. To a 96 well culture dish (manufactured by Thermo Fisher Scientific), 200 μL of the cell suspension was added to be 4.0×10^4 cells/well.
Next, the lipid particles encapsulating the three types of vectors 1 prepared in Example 3 were added to the wells to be a DNA concentration of 50 ng/well. At the same time, the lipid particles encapsulating the vector 2 prepared in Example 3 were further added to the wells to be a DNA concentration of 1 ng/well. As a control, a well to which only the vector 2 was added was also provided. Therefore, a sample to which only the vector 2 was added, a sample to which the vector 1-10 and the vector 2 were added, a sample to which the vector 1-20 and the vector 2 were added, and a sample to which the vector 1-30 and the vector 2 were added were obtained. After the addition, the cells were cultured at 37° C. in a 5% CO2 atmosphere.
48 hours after the addition of the lipid particles, the culture plate was taken out of the incubator, and the medium was removed. Then, the cells were washed with PBS, Glo Lysis Buffer (Promega) was added thereto at 100 μL/well, and the resulting mixtures were frozen at −80° C. for 30 minutes. The mixtures were melted at room temperature and then collected in 1.5 ml centrifuge tubes. The cell lysates were centrifuged at 15,000 rpm for 10 minutes to precipitate cell residues, and 25 μL of supernatant was dispensed into a 96 well plate (Black, Nunc). To the dispensed supernatant, 25 μL of a luciferase substrate solution contained in a luciferase assay system (Nano-Glo (registered trademark) Luciferase Assay System, Promega Corporation) was added and mixed. The luminescence amount of the resulting mixture per 1 well per 0.1 seconds was measured by using a luminometer (Mithras LB 940, Berthold).

B1: vector 1-20: CMV-promoter vector with Cre gene cleaved by ApaI/NheI, 20-base homologous sequences at the cleavage site (from SEQ ID NO: 10) (nucleic acid)
DNA: AGTGAACCGTCAGATCCTCGAGATCTGCGATCTAAGTAATGTCCAATTTACTGACCGTACACCAAAATTTGCCTGCATTACCGGTCGATGCAACGAGTGATGAGGTTCGCAAGAACCTGATGGACATGTTCAGGGATCGCCAGGCGTTTTCTGAGCATACCTGGAAAATGCTTCTGTCCGTTTGCCGGTCGTGGGCGGCATGGTGCAAGTTGAATAACCGGAAATGGTTTCCCGCAGAACCTGAAGATGTTCGCGATTATCTTCTATATCTTCAGGCGCGCGGTCTGGCAGTAAAAACTATCCAGCAACATTTGGGCCAGCTAAACATGCTTCATCGTCGGTCCGGGCTGCCACGACCAAGTGACAGCAATGCTGTTTCACTGGTTATGCGGCGGATCCGAAAAGGGCCCGTTAACGCTAGCTTATGCGGCGGATCCGAAAAGAAAACGTTGATGCCGGTGAACGTGCAAAACAGGCTCTAGCGTTCGAACGCACTGATTTCGACCAGGTTCGTTCACTCATGGAAAATAGCGATCGCTGCCAGGATATACGTAATCTGGCATTTCTGGGGATTGCTTATAACACCCTGTTACGTATAGCCGAAATTGCCAGGATCAGGGTTAAAGATATCTCACGTACTGACGGTGGGAGAATGTTAATCCATATTGGCAGAACGAAAACGCTGGTTAGCACCGCAGGTGTAGAGAAGGCACTTAGCCTGGGGGTAACTAAACTGGTCGAGCGATGGATTTCCGTCTCTGGTGTAGCTGATGATCCGAATAACTACCTGTTTTGCCGGGTCAGAAAAAATGGTGTTGCCGCGCCATCTGCCACCAGCCAGCTATCAACTCGCGCCCTGGAAGGGATTTTTGAAGCAACTCATCGATTGATTTACGGCGCTAAGGATGACTCTGGTCAGAGATACCTGGCCTGGTCTGGACACAGTGCCCGTGTCGGAGCCGCGCGAGATATGGCCCGCGCTGGAGTTTCAATACCGGAGATCATGCAAGCTGGTGGCTGGACCAATGTAAATATTGTCATGAACTATATCCGTAACCTGGATAGTGAAACAGGGGCAATGGTGCGCCTGCTGGAAGATGGCGATTAGGGCCGCGACTCTAGAACTAGTGGATCCCCC
modifications: misc_feature 1..1138 vector 1-20
luminescence amount ratio (luminescence intensity with vector 2 alone assumed to be 1): 0.31 | NanoLuc luminescence intensity (RLU): ~2.0×10^5 RLU

B2: vector 1-30: CMV-promoter vector with Cre gene cleaved by ApaI/NheI, 30-base homologous sequences at the cleavage site (from SEQ ID NO: 11) (nucleic acid)
DNA: AGTGAACCGTCAGATCCTCGAGATCTGCGATCTAAGTAATGTCCAATTTACTGACCGTACACCAAAATTTGCCTGCATTACCGGTCGATGCAACGAGTGATGAGGTTCGCAAGAACCTGATGGACATGTTCAGGGATCGCCAGGCGTTTTCTGAGCATACCTGGAAAATGCTTCTGTCCGTTTGCCGGTCGTGGGCGGCATGGTGCAAGTTGAATAACCGGAAATGGTTTCCCGCAGAACCTGAAGATGTTCGCGATTATCTTCTATATCTTCAGGCGCGCGGTCTGGCAGTAAAAACTATCCAGCAACATTTGGGCCAGCTAAACATGCTTCATCGTCGGTCCGGGCTGCCACGACCAAGTGACAGCAATGCTGTTTCACTGGTTATGCGGCGGATCCGAAAAGAAAACGTTGGGGCCCGTTAACGCTAGCTTATGCGGCGGATCCGAAAAGAAAACGTTGATGCCGGTGAACGTGCAAAACAGGCTCTAGCGTTCGAACGCACTGATTTCGACCAGGTTCGTTCACTCATGGAAAATAGCGATCGCTGCCAGGATATACGTAATCTGGCATTTCTGGGGATTGCTTATAACACCCTGTTACGTATAGCCGAAATTGCCAGGATCAGGGTTAAAGATATCTCACGTACTGACGGTGGGAGAATGTTAATCCATATTGGCAGAACGAAAACGCTGGTTAGCACCGCAGGTGTAGAGAAGGCACTTAGCCTGGGGGTAACTAAACTGGTCGAGCGATGGATTTCCGTCTCTGGTGTAGCTGATGATCCGAATAACTACCTGTTTTGCCGGGTCAGAAAAAATGGTGTTGCCGCGCCATCTGCCACCAGCCAGCTATCAACTCGCGCCCTGGAAGGGATTTTTGAAGCAACTCATCGATTGATTTACGGCGCTAAGGATGACTCTGGTCAGAGATACCTGGCCTGGTCTGGACACAGTGCCCGTGTCGGAGCCGCGCGAGATATGGCCCGCGCTGGAGTTTCAATACCGGAGATCATGCAAGCTGGTGGCTGGACCAATGTAAATATTGTCATGAACTATATCCGTAACCTGGATAGTGAAACAGGGGCAATGGTGCGCCTGCTGGAAGATGGCGATTAGGGCCGCGACTCTAGAACTAGTGGATCCCCC
modifications: misc_feature 1..1148 vector 1-30
luminescence amount ratio (luminescence intensity with vector 2 alone assumed to be 1): 0.37 | NanoLuc luminescence intensity (RLU): ~2.4×10^5 RLU

B3: vector 1-10: CMV-promoter vector with Cre gene cleaved by ApaI/NheI, 10-base homologous sequences at the cleavage site (from SEQ ID NO: 9) (nucleic acid)
DNA: AGTGAACCGTCAGATCCTCGAGATCTGCGATCTAAGTAATGTCCAATTTACTGACCGTACACCAAAATTTGCCTGCATTACCGGTCGATGCAACGAGTGATGAGGTTCGCAAGAACCTGATGGACATGTTCAGGGATCGCCAGGCGTTTTCTGAGCATACCTGGAAAATGCTTCTGTCCGTTTGCCGGTCGTGGGCGGCATGGTGCAAGTTGAATAACCGGAAATGGTTTCCCGCAGAACCTGAAGATGTTCGCGATTATCTTCTATATCTTCAGGCGCGCGGTCTGGCAGTAAAAACTATCCAGCAACATTTGGGCCAGCTAAACATGCTTCATCGTCGGTCCGGGCTGCCACGACCAAGTGACAGCAATGCTGTTTCACTGGTTATGCGGCGGGGCCCGTTAACGCTAGCTTATGCGGCGGATCCGAAAAGAAAACGTTGATGCCGGTGAACGTGCAAAACAGGCTCTAGCGTTCGAACGCACTGATTTCGACCAGGTTCGTTCACTCATGGAAAATAGCGATCGCTGCCAGGATATACGTAATCTGGCATTTCTGGGGATTGCTTATAACACCCTGTTACGTATAGCCGAAATTGCCAGGATCAGGGTTAAAGATATCTCACGTACTGACGGTGGGAGAATGTTAATCCATATTGGCAGAACGAAAACGCTGGTTAGCACCGCAGGTGTAGAGAAGGCACTTAGCCTGGGGGTAACTAAACTGGTCGAGCGATGGATTTCCGTCTCTGGTGTAGCTGATGATCCGAATAACTACCTGTTTTGCCGGGTCAGAAAAAATGGTGTTGCCGCGCCATCTGCCACCAGCCAGCTATCAACTCGCGCCCTGGAAGGGATTTTTGAAGCAACTCATCGATTGATTTACGGCGCTAAGGATGACTCTGGTCAGAGATACCTGGCCTGGTCTGGACACAGTGCCCGTGTCGGAGCCGCGCGAGATATGGCCCGCGCTGGAGTTTCAATACCGGAGATCATGCAAGCTGGTGGCTGGACCAATGTAAATATTGTCATGAACTATATCCGTAACCTGGATAGTGAAACAGGGGCAATGGTGCGCCTGCTGGAAGATGGCGATTAGGGCCGCGACTCTAGAACTAGTGGATCCCCC
modifications: misc_feature 1..1128 vector 1-10
luminescence amount ratio (luminescence intensity with vector 2 alone assumed to be 1): 0.45 | NanoLuc luminescence intensity (RLU): about 2.9×10^5 RLU
